Target: NADH-dependent [FeFe]-hydrogenase Hyd1ABC (purified recombinant heterotrimer) (Syntrophomonas wolfei)

B1: Clostridial ferredoxin (Clostridium pasteurianum) (natural protein)
chain: MAYKIADSCVSCGACASECPVNAISQGDSIFVIDADTCIDCGNCANVCPVGAPVQE
Q: B1 was tested. Which hydrogenase activity, Fdred → H2 (hydrogen production from reduced ferredoxin without NADH), 37°C, pH 7.5 did it give?
A: The hydrogenase activity, Fdred → H2 (hydrogen production from reduced ferredoxin without NADH), 37°C, pH 7.5 was < 0.01 U · mg^−1.

Q: And the hydrogenase activity, H2 → Fdox (reduction of oxidized ferredoxin with hydrogen as the electron donor), 37°C, pH 7.5?
A: The hydrogenase activity, H2 → Fdox (reduction of oxidized ferredoxin with hydrogen as the electron donor), 37°C, pH 7.5 was < 0.01 U · mg^−1.

— paper PMC5626996
